Assay results reported in patent publication US20150100046A1, “INTRAOCULAR DRUG DELIVERY DEVICE AND ASSOCIATED METHODS” (priority 2013, published 2015).

Test: Ocular tissue drug concentration by ELISA after implantation of loaded intraocular device
Assay type: in vivo, New Zealand white rabbits
Conditions: intraocular device loaded with Avastin implanted in lens capsule after lens extraction, 1 week post implantation
Text: Three intraocular devices were implanted into eyes of New Zealand white rabbits under general anesthesia after lens extraction (phacoemulsification technique). Two of the devices were loaded with Avastin® (bevacizumab) and one was loaded with the contrast agent gadolinium-labeled albumin (Galbumin™) as a control. Proper intraocular device position was verified by MRI as well as clinical examination.
The rabbits were sacrificed and the eyes are removed and assayed after 1 week post implantation. Bevacizumab (Avastin®) was detected by ELISA in the retina and vitreous at concentrations of 24-48 mcg/mL, and was not present in the control rabbit eye.

Substance: bevacizumab [Bevacizumab (Avastin®)]
- concentration detected by ELISA in the retina and vitreous: 24000 to 48000 ng/mL
